We go through two substances from paper PMC5835670.

In this assay the target is SbSTOP1d-NT (N-terminal fragment of SbSTOP1d, 1-275 aa, truncated before the zinc finger domain) fused to the GAL4 DNA-binding domain (Sorghum bicolor (sweet sorghum)). Nature of the assay: two-hybrid; β-galactosidase assay in yeast strain Y190 with CPRG as substrate, Miller units; BD-SbSTOP1d-NT bait, AD fusion prey.

Turning to “SbSTOP1d fused to the GAL4 activation domain (natural protein)”, the β-galactosidase activity, fold of the control (times that of the control) was found to be 450.
Then “SbSTOP1b fused to the GAL4 activation domain (natural protein)”, with 80.
